{"source": "patent US20250263462A1", "about": "(US Dept. of Health and Human Services, published 2025)", "assay_in_all_cases": "cell-based or functional assay", "key": {"[1]": {"target": "WT KRAS 9-mer peptide (SEQ ID NO: 31) presented by HLA-A11 on pulsed cells (human, UniProt A*11:01)"}, "[2]": {"target": "T1, WT KRAS 10-mer peptide (SEQ ID NO: 30) presented by HLA-A11 on pulsed cells (human, UniProt A*11:01)"}, "[3]": {"target": "T2, KRAS G12D 9-mer peptide KRAS8-16 … (SEQ ID NO: 34) presented by HLA-A11 on pulsed cells (human, UniProt A*11:01)"}, "[4]": {"target": "T1, WT KRAS 10-mer peptide (SEQ ID NO: 30) …", "remark": "listed apart in the source"}, "[5]": {"target": "T2, KRAS G12D 9-mer peptide KRAS8-16 … (SEQ …)", "remark": "listed apart in the source"}, "[6]": {"target": "T3, KRAS G12D 10-mer peptide … (SEQ ID NO: 2) presented by HLA-A11 on pulsed cells (human, UniProt A*11:01)"}, "[7]": {"target": "KRAS G12V 9-mer peptide … (SEQ ID NO: 35) presented by HLA-A11 on pulsed cells (human, UniProt A*11:01)"}, "[8]": {"target": "HLA-A11 on COS7/A11 cells expressing the KRAS G12V minigene (23-mer SEQ ID NO: 120) (human, UniProt A*11:01)"}, "[9]": {"target": "HLA-A11 on COS7/A11 cells expressing the KRAS G12D minigene (23-mer SEQ ID NO: 119) (human, UniProt A*11:01)"}, "[10]": {"target": "HLA-A11 on COS7/A11 cells expressing the WT KRAS minigene (23-mer SEQ ID NO: 118) (human, UniProt A*11:01)"}, "[11]": {"target": "T1, WT KRAS 10-mer peptide (SEQ ID NO: 30) …", "remark": "listed apart in the source"}, "[12]": {"target": "T3, KRAS G12D 10-mer peptide … (SEQ ID NO: …)", "remark": "listed apart in the source"}}, "data": [{"binder": "TRAV4-4/DV10*01/BV12-2*01 murine anti-KRAS G12D TCR (SEQ ID NOs: 157 and 158) (TCR, V domains shown) V domain 1: GDQVEQSPSALSLHEGTDSALRCNFTTTMRSVQWFRQNSRGSLISLFYLASGTKENGRLKSAFDSKERRYSTLHIRDAQLEDSGTYFCAADSSNTGYQNFYFGKGTSLTVIP V domain 2: NSGVVQSPRYIIKGKGERSILKCIPISGHLSVAWYQQTQGQELKFFIQHYDKMERDKGNLPSRFSVQQFDDYHSEMNMSALELEDSAVYFCASSLTDPLDSDYTFGSGTRLLVIE", "values": [{"measurement": "IFN-γ, PBL + Cos7/A11 pulsed at 10^-6 M", "setting": "[1]", "result": 54, "unit": "pg/mL"}, {"measurement": "IFN-γ, PBL + Cos7/A11 pulsed at 10^-7 M", "setting": "[1]", "result": 53, "unit": "pg/mL"}, {"measurement": "IFN-γ, PBL + Cos7/A11 pulsed at 10^-8 M", "setting": "[1]", "result": 59, "unit": "pg/mL"}, {"measurement": "IFN-γ, PBL + Cos7/A11 pulsed at 10^-9 M", "setting": "[1]", "result": 54, "unit": "pg/mL"}, {"measurement": "IFN-γ, PBL + Cos7/A11 pulsed at 10^-10 M", "setting": "[1]", "result": 51, "unit": "pg/mL"}, {"measurement": "IFN-γ, PBL + Cos7/A11 pulsed at 10^-11 M", "setting": "[1]", "result": 48, "unit": "pg/mL"}, {"measurement": "IFN-γ, PBL + Cos7/A11 pulsed at 10^-12 M", "setting": "[1]", "result": 52, "unit": "pg/mL"}, {"measurement": "IFN-γ, PBL + Cos7/A11 pulsed at 10^-13 M", "setting": "[1]", "result": 51, "unit": "pg/mL"}, {"measurement": "IFN-γ, PBL + Cos7/A11 pulsed at 10^-6 M", "setting": "[2]", "result": 56, "unit": "pg/mL"}, {"measurement": "IFN-γ, PBL + Cos7/A11 pulsed at 10^-7 M", "setting": "[2]", "result": 57, "unit": "pg/mL"}, {"measurement": "IFN-γ, PBL + Cos7/A11 pulsed at 10^-8 M", "setting": "[2]", "result": 51, "unit": "pg/mL"}, {"measurement": "IFN-γ, PBL + Cos7/A11 pulsed at 10^-9 M", "setting": "[2]", "result": 51, "unit": "pg/mL"}, {"measurement": "IFN-γ, PBL + Cos7/A11 pulsed at 10^-10 M", "setting": "[2]", "result": 54, "unit": "pg/mL"}, {"measurement": "IFN-γ, PBL + Cos7/A11 pulsed at 10^-11 M", "setting": "[2]", "result": 50, "unit": "pg/mL"}, {"measurement": "IFN-γ, PBL + Cos7/A11 pulsed at 10^-12 M", "setting": "[2]", "result": 44, "unit": "pg/mL"}, {"measurement": "IFN-γ, PBL + Cos7/A11 pulsed at 10^-13 M", "setting": "[2]", "result": 54, "unit": "pg/mL"}, {"measurement": "IFN-γ, PBL + Cos7/A11 pulsed at 10^-6 M", "setting": "[3]", "result": 131, "unit": "pg/mL"}, {"measurement": "IFN-γ, PBL + Cos7/A11 pulsed at 10^-7 M", "setting": "[3]", "result": 60, "unit": "pg/mL"}, {"measurement": "IFN-γ, PBL + Cos7/A11 pulsed at 10^-8 M", "setting": "[3]", "result": 47, "unit": "pg/mL"}, {"measurement": "IFN-γ, PBL + Cos7/A11 pulsed at 10^-9 M", "setting": "[3]", "result": 53, "unit": "pg/mL"}, {"measurement": "IFN-γ, PBL + Cos7/A11 pulsed at 10^-10 M", "setting": "[3]", "result": 53, "unit": "pg/mL"}, {"measurement": "IFN-γ, PBL + Cos7/A11 pulsed at 10^-11 M", "setting": "[3]", "result": 52, "unit": "pg/mL"}, {"measurement": "IFN-γ, PBL + Cos7/A11 pulsed at 10^-12 M", "setting": "[3]", "result": 58, "unit": "pg/mL"}, {"measurement": "IFN-γ, PBL + Cos7/A11 pulsed at 10^-13 M", "setting": "[3]", "result": 51, "unit": "pg/mL"}]}, {"binder": "TRAV19*01/TRBV13-1*02 murine anti-KRAS G12V TCR (SEQ ID NOs: 145 and 146) (TCR, V domains shown) V domain 1: GQQVKQSSPSLTVQEGGILILNCDYENDMFDYFAWYKKYPDNSPTLLISVRSNVDKREDGRFTVFLNKSGKHFSLHITASQPEDTAVYLCAAGDSGGSNYKLTFGKGTLLTVTP V domain 2: EAAVTQSPRNKVTVTGGNVTLSCRQTNSHNYMYWYRQDTGHGLRLIHYSYGAGNLQIGDVPDGYKATRTTQEDFFLLLELASPSQTSLYFCASASWGGYAEQFFGPGTRLTVLE", "values": [{"measurement": "IFN-γ, PBL + Cos7/A11 pulsed at 10^-6 (10^× µM)", "setting": "[4]", "result": 57, "unit": "pg/mL"}, {"measurement": "IFN-γ, PBL + Cos7/A11 pulsed at 10^-7 (10^× µM)", "setting": "[4]", "result": 56, "unit": "pg/mL"}, {"measurement": "IFN-γ, PBL + Cos7/A11 pulsed at 10^-8 (10^× µM)", "setting": "[4]", "result": 57, "unit": "pg/mL"}, {"measurement": "IFN-γ, PBL + Cos7/A11 pulsed at 10^-9 (10^× µM)", "setting": "[4]", "result": 49, "unit": "pg/mL"}, {"measurement": "IFN-γ, PBL + Cos7/A11 pulsed at 10^-10 (10^× µM)", "setting": "[4]", "result": 57, "unit": "pg/mL"}, {"measurement": "IFN-γ, PBL + Cos7/A11 pulsed at 10^-11 (10^× µM)", "setting": "[4]", "result": 65, "unit": "pg/mL"}, {"measurement": "IFN-γ, PBL + Cos7/A11 pulsed at 10^-12 (10^× µM)", "setting": "[4]", "result": 67, "unit": "pg/mL"}, {"measurement": "IFN-γ, PBL + Cos7/A11 pulsed at 10^-13 (10^× µM)", "setting": "[4]", "result": 70, "unit": "pg/mL"}, {"measurement": "IFN-γ, PBL + Cos7/A11 pulsed at 10^-6 (10^× µM)", "setting": "[5]", "result": 63, "unit": "pg/mL"}, {"measurement": "IFN-γ, PBL + Cos7/A11 pulsed at 10^-7 (10^× µM)", "setting": "[5]", "result": 57, "unit": "pg/mL"}, {"measurement": "IFN-γ, PBL + Cos7/A11 pulsed at 10^-8 (10^× µM)", "setting": "[5]", "result": 48, "unit": "pg/mL"}, {"measurement": "IFN-γ, PBL + Cos7/A11 pulsed at 10^-9 (10^× µM)", "setting": "[5]", "result": 54, "unit": "pg/mL"}, {"measurement": "IFN-γ, PBL + Cos7/A11 pulsed at 10^-10 (10^× µM)", "setting": "[5]", "result": 62, "unit": "pg/mL"}, {"measurement": "IFN-γ, PBL + Cos7/A11 pulsed at 10^-11 (10^× µM)", "setting": "[5]", "result": 52, "unit": "pg/mL"}, {"measurement": "IFN-γ, PBL + Cos7/A11 pulsed at 10^-12 (10^× µM)", "setting": "[5]", "result": 57, "unit": "pg/mL"}, {"measurement": "IFN-γ, PBL + Cos7/A11 pulsed at 10^-13 (10^× µM)", "setting": "[5]", "result": 70, "unit": "pg/mL"}, {"measurement": "IFN-γ, PBL + Cos7/A11 pulsed at 10^-6 (10^× µM)", "setting": "[6]", "result": 61, "unit": "pg/mL"}, {"measurement": "IFN-γ, PBL + Cos7/A11 pulsed at 10^-7 (10^× µM)", "setting": "[6]", "result": 50, "unit": "pg/mL"}, {"measurement": "IFN-γ, PBL + Cos7/A11 pulsed at 10^-8 (10^× µM)", "setting": "[6]", "result": 49, "unit": "pg/mL"}, {"measurement": "IFN-γ, PBL + Cos7/A11 pulsed at 10^-9 (10^× µM)", "setting": "[6]", "result": 59, "unit": "pg/mL"}, {"measurement": "IFN-γ, PBL + Cos7/A11 pulsed at 10^-10 (10^× µM)", "setting": "[6]", "result": 52, "unit": "pg/mL"}, {"measurement": "IFN-γ, PBL + Cos7/A11 pulsed at 10^-11 (10^× µM)", "setting": "[6]", "result": 64, "unit": "pg/mL"}, {"measurement": "IFN-γ, PBL + Cos7/A11 pulsed at 10^-12 (10^× µM)", "setting": "[6]", "result": 62, "unit": "pg/mL"}, {"measurement": "IFN-γ, PBL + Cos7/A11 pulsed at 10^-13 (10^× µM)", "setting": "[6]", "result": 63, "unit": "pg/mL"}, {"measurement": "IFN-γ, PBL + Cos7/A11 pulsed at 10^-6 (10^× µM)", "setting": "[7]", "result": 112, "unit": "pg/mL"}, {"measurement": "IFN-γ, PBL + Cos7/A11 pulsed at 10^-7 (10^× µM)", "setting": "[7]", "result": 70, "unit": "pg/mL"}, {"measurement": "IFN-γ, PBL + Cos7/A11 pulsed at 10^-8 (10^× µM)", "setting": "[7]", "result": 52, "unit": "pg/mL"}, {"measurement": "IFN-γ, PBL + Cos7/A11 pulsed at 10^-9 (10^× µM)", "setting": "[7]", "result": 55, "unit": "pg/mL"}, {"measurement": "IFN-γ, PBL + Cos7/A11 pulsed at 10^-10 (10^× µM)", "setting": "[7]", "result": 64, "unit": "pg/mL"}, {"measurement": "IFN-γ, PBL + Cos7/A11 pulsed at 10^-11 (10^× µM)", "setting": "[7]", "result": 62, "unit": "pg/mL"}, {"measurement": "IFN-γ, PBL + Cos7/A11 pulsed at 10^-12 (10^× µM)", "setting": "[7]", "result": 66, "unit": "pg/mL"}, {"measurement": "IFN-γ, PBL + Cos7/A11 pulsed at 10^-13 (10^× µM)", "setting": "[7]", "result": 64, "unit": "pg/mL"}, {"measurement": "IFN-γ, PBL + Cos7/A11 minigene transfectant", "setting": "[8]", "result": 18100, "unit": "pg/mL"}, {"measurement": "IFN-γ, PBL + Cos7/A11 minigene transfectant", "setting": "[9]", "result": 81, "unit": "pg/mL"}, {"measurement": "IFN-γ, PBL + Cos7/A11 minigene transfectant", "setting": "[10]", "result": 92, "unit": "pg/mL"}, {"measurement": "IFN-γ, PBL + pulsed Cos7/A11", "setting": "[11]", "result": 90, "unit": "pg/mL"}, {"measurement": "IFN-γ, PBL + pulsed Cos7/A11", "setting": "[12]", "result": 94, "unit": "pg/mL"}]}]}
